Measurements taken from patent publication US20240382586A1 (TAKIS S R L, published 2024).
Where a chain is given by its changes, count along the chain named. Read-outs that look alike come from different tables or passages of the source.

Legend:
[1] = target: SARS-CoV-2 spike receptor-binding domain (RBD), recombinant (SARS-CoV-2, UniProt P0DTC2 319-541); test: SPR, Carterra LSA
[2] = target: T1, SARS-CoV-2 spike receptor-binding domain, wild type (RBD-6×His) (SARS-CoV-2, UniProt P0DTC2 319-541)
[3] = target: T1, SARS-CoV-2 spike receptor-binding …; remark: listed apart in the source
[4] = target: T2, SARS-CoV-2 spike receptor-binding domain (RBD), recombinant (SARS-CoV-2, UniProt P0DTC2 319-541); test: SPR, Carterra LSA; remark: listed apart in the source
[5] = target: T2, SARS-CoV-2 spike receptor-binding …; test: ELISA on RBD
[6] = target: RBD-6×His protein, RBD WT of the SARS-CoV-2 spike protein (SARS-CoV-2, UniProt P0DTC2 319-541); test: ELISA on recombinant RBD
[7] = target: T1, SARS-CoV-2 spike receptor-binding …; remark: listed apart in the source
[8] = target: RBD fragment of the SARS-CoV-2 spike protein (RBD WT), recombinant (SARS-CoV-2, UniProt P0DTC2 319-541); test: SPR Carterra LSA
[9] = target: T3, full-length spike protein (coated in ELISA) (SARS-CoV-2, UniProt P0DTC2 16-1213)
[10] = target: T1, SARS-CoV-2 spike receptor-binding …; remark: listed apart in the source
[11] = target: T1, SARS-CoV-2 spike receptor-binding …; test: ELISA, coated RBD-6His
[12] = target: T1, SARS-CoV-2 spike receptor-binding …; remark: listed apart in the source
[13] = target: T3, full-length spike protein (coated in …); remark: listed apart in the source
[14] = target: T1, SARS-CoV-2 spike receptor-binding …; remark: listed apart in the source

B1: 3-12B12 (antibody, V domains shown)
VH: EVQLQQSGAELVRPGALVKLSCKASGFNIKDYYMHWVKQRPEQGLEWIGWIDPENGNSIYDPKFQGKASITADTSFNTVNLHLSSLTSEDTAVYYCAPYYYDSTYVGTMDYWGQGTSVTVSS
VL: QIVLTQSPAIMSASPGEKVTMTCSASSSVGYMYWYQQKPGSSPRLLIYDTSNLASGVPVRFGGSGSGTSYSLTISRMEAEDAATYYCQQWSSYPPRTFGGGTKLEIK
How did the Kd [1] turn out when B1 was run?
The Kd was 0.0165 nM.

B2: humanised 9-8F2-B11 (VH3VL3) (antibody, V domains shown)
VH: QVQLVQSGAEVKKPGASVKVSCKASGFNIKETYVHWVRQAPGQGLEWMGRIDPAIGDSEYAQKFQGRVTMTRDTSISTAYMELSRLRSDDTAVYYCARTWGPFFDFWGQGTLVTVSS
VL: DIVMTQTPLSLSVTPGQPASISCKSSQSLLHSHGNTFLHWYLQKPGQSPQVLIYKVSSRFSGVPDRFSGSGSGTDFTLKISRVEAEDVGVYYCSQSTHVPYTFGQGTKLEIK
notes: also called 9-8F2-B11 humanised
What does the source list for B2?
Kd [2]: 2.26 nM; EC50 (read off the curve) [3]: ~0.01 µg/mL

B3: 2-5D9 (antibody, V domains shown)
VH: QVQLQESGPGLVKPSETLSLTCTVSGGSISSYYWSWIRQPPGKGLEWIGYIYYTGSTNYNPSLKSRVTISVDTSKNQFSLKLRSVTAADTAVYYCAGTYDSNLLDPWGQGTLVTVSS
VL: DIQMTQSPSSLSASVGDRVTITCRASQGISNSLAWYQQKPGKAPKLLLYDVFRFESGVPSRFSGSGSGTDYTLTISSLQPDDFATYYCQQYYSTPYTFGQGTKVEIK
B3 was tested. Which Kd [4] did it give?
Its Kd is 0.544 nM.

And the “A(405 nm)” value [5]?
Its value is 3.49.

B4: 2-5C4 (antibody, V domains shown)
VH: EVQLVESGGGLIQPGGSLRLSCAASGLTVSSNYMNWVRQAPGKGLEWVSVIYAGGSTFYADSVKGRFTISRDNSKNTLYLQMNSLRAEDTAFYYCARESYGMDVWGQGTTVTVSS
VL: EIVLTQSPATLSLSPGERATLSCRASQSISSSYLAWYQQKPGQAPRLLIYGASSRATGIPDRFSGSGSGTDFTLTISRLEPEDFAVYYCQQYGSLYTFGQGTKVEIK
What does the source list for B4?
Kd [4]: 0.026 nM; A(405 nm) [5]: 2.26

B5: humanised antibody 9-7A4-C2 (antibody, V domains shown)
VH: EVQLQQSGAEVKKPGASVKVSCKTSGYTFTEYTMYWVRQAPGQRLEWMGGINPNNGDSSYIQKFQGRVTITRDTSASTAYMELSSLRSEDTAVYYCARDGYPNSYAMDYWGQGTLVTVSS
VL: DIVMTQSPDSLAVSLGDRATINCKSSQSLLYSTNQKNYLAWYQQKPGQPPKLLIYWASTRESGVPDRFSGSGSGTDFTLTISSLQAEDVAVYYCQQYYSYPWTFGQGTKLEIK
notes: also called humanised 9-7A4-C2
Does B5 bind [6]?
Result: binds

B6: 9-2H7-D7 chimera (antibody, V domains shown)
VH: EVQLQQSGPELVKPGASVTISCKTSGYTFTEYTMYWVKQSHGKSLEWIGGINPYIGDTSYNQNFKGKATLTVDKSSSTAYMELRSLTSEDSAVYYCARDGYPDYSAMDFWGQGTSVTVSS
VL: DIVMSQSPSSLAVSVGEKVTMNCKSSQNLLYSSNQKNYLAWYQQKPGQSPKLLIYWASTRESGVPDRFTGSGSGTDFTLTISSVKAEDLAVYSCQQYYTYPWTFGGGTKLEIK
For B6, which “EC50 (read off the curve)” value [7] is on record?
Its value is roughly 0.05 µg/mL.

B7: 9-2H7 (antibody, V domains shown)
VH: B6 VH
VL: B6 VL
B7 was tested. Which Kd [8] did it give?
Its Kd is 0.00977 nM.

B8: humanised antibody 9-2H7-D7 (antibody, V domains shown)
VH: QVQLQQSGAEVKKPGASVKISCKTSGYTFTEYTMYWVKQSHGKSLEWMGGINPYIGDTSYNQNFKGRVTMTRDKSTSTAYMELSSLTSEDSAVYYCARDGYPDYSAMDFWGQGTSVTVSS
VL: B6 VL with S5T, K18R, M21I, Q35N, T69S, K85Q, L89V
notes: also called humanised 9-2H7-D7
Does B8 bind [6]?
Result: binds

B9: 9-2H7-D7 (mouse) (antibody, V domains shown)
VH: B6 VH
VL: B6 VL
What does the source list for B9?
IC50 [9]: 0.0046 µg/mL; Kd [10]: 0.0515 nM; IC50 [11]: 0.0269 µg/mL

B10: 9-7A4 (antibody, V domains shown)
VH: EVQLQQSGPELVKPGASVKISCKTSGYTFTEYTMYWVKQSHGKSLEWIGGINPNNGDSSYIQKFKGKATLTVDESSSTAYMELRSLTSEDSAVYYCARDGYPNSYAMDYWGQGTSVTVSS
VL: B6 VL with E17D, N22S, N28S, S33T, S82G, K85R, A86P, S93Y, T99S
Which Kd [8] does the source give for B10 here?
The Kd was 0.735 nM.

B11: 9-7A4-C2 (mouse) (antibody, V domains shown)
VH: B10 VH
VL: B6 VL with E17D, N22S, N28S, S33T, S82G, K85R, A86P, S93Y, T99S
How did the Kd [12] turn out when B11 was run?
Its Kd is 0.643 nM.

And the IC50 [13]?
The IC50 was 0.0027 µg/mL.

And the IC50 [11]?
The IC50 was 0.0133 µg/mL.

B12: 2-4G1 (antibody, V domains shown)
VH: EVQLVQSGAEVKRPGASVKVSCKASGYTFTSYGLSWVRQAPGQGLEWMGWINTYNGHTNYAQKVQGRVTLTTDTSTSTAYMELRSLRSDDTAVYYCARVESVYYGSGTCDPWGQGTLVTVSS
VL: DIQMTQSPSSLSASVGDRVTITCRASQSISSYLNWYQQKPGKAPKLLIYIASSLQSGVPSRFSGSGSGTDFTLTISSLQPEDFATYYCHQSYSSPHTFGQGTKLEIK
What does the source list for B12?
Kd [4]: 14.4 nM; A(405 nm) [5]: 2.08

B13: 2-5F8 (antibody, V domains shown)
VH: QVQLVQSGAEVKKPGASVKVSCKASGYTFTNYYMHWVRQAPGQGLEWMGVINPSGASTSYAQKFQGRVTMTRDTSTSTVYMELSSLRSEDTAVYYCASWGGNIPLYYYYGMDVWGQGTTVTVSS
VL: QSALTQPPSASGSPGQSVTISCTGTSSDVGGYNYVSWYQQHPGKAPKLMIYEVSKRPSGVPDRFSGSKAGNTASLTVSGLQAEDEADYYCTSYAGSNIWVFGGGTKLTVL
Which results are given for B13?
Kd [4]: 1.5 nM; A(405 nm) [5]: 3.48

B14: VH1/VL1 (antibody, V domains shown)
VH: EVQLQQSGAELVKPGASVKLSCTASGFNIKETYVHWVKQRPEQGLEWIGRIDPAIGDSEYDPKFQGKATVTADTSSNTAYLQLSRLTSEDTAVYYCARTWGPFFDFWGQGTTLTVSS
VL: DVVMTQTPLSLPVSLGDQASISCRSSQSLVHSHGNTFLHWYLQKPGQSPKVLIYKVSSRFSGVPDRFSGSGAGTDFTLKISRVEAEDLGVYFCSQSTHVPYTFGGGTKLEIK
notes: also called chimeric antibody 9-8F2-B11, combination VH1/VL1
For B14, which “EC50 (read off the curve)” value [14] is on record?
The value was roughly 0.1 µg/mL.

B15: 9-8F2-B11 (mouse) (antibody, V domains shown)
VH: B14 VH
VL: B14 VL
For B15, which Kd [12] is on record?
Its Kd is 0.913 nM.

What about the IC50 [13] of the same binder?
Its IC50 is 0.0037 µg/mL.

And the IC50 [11]?
The IC50 was 0.0137 µg/mL.
